Source: US6365350B1, “Method of DNA sequencing” (The Institute of Physical and Chemical Research, priority 1997, dated 2002)
Entries after “also recorded” stand apart in the source; their conditions may differ.

What was measured:
dye terminators = experiment: Sequencing reaction utilizing mutant T7 RNA polymerase F644Y/L665P/F667Y (Example 8); format: biochemical; conditions: PCR product template, n=4 dye terminators, FIG. 41
3′-dATP = experiment: Inhibition of [α-32P]UTP incorporation by 3′-dATP in transcription reaction (relative activity for 3′-dATP); format: biochemical
[1] = test system: DNA containing T7 promoter; conditions: in vitro, compared with wild type T7 RNA polymerase
Procedure: Subsequent steps for purification of enzyme should be performed at a temperature lower than room temperature, preferably 0-5° C. unless otherwise indicated. The E. coli cells were washed with 10 times relative to the cell weight of a washing buffer (20 mM Tris-HCl, pH 8.1, 130 mM NaCl, 2 mM EDTANa2 at 25° C.), centrifuged again (5,000×g, 4° C., 10 minutes), suspended in 10 times in volume of a sonication buffer [50 mM Tris-HCl, pH 8.1, 100 mM NaCl, 0.1 mM EDTANa2, 5 mM dithiothreitol (DTT), 0.1 mM benzamidine, 30 μg/ml phenylmethylsulfonyl fluoride (PMSF), 10 μg/ml bacitracin], and sonicated by using Sonifier 450 (Branson) at 80W for more than 15 minutes to destroy the cells and reduce the viscosity of the cells. Then, the cell suspension is centrifuged at 12,000×g and 4° C. for ten minutes to remove the cell debris. 10% streptomycin sulfate was slowly added dropwise to the resulting supernatant to a final concentration of 2.0% with stirring, and stirring was further continued for 30 minutes. The supernatant was centrifuged at 12,000×g and 4° C. for ten minutes to remove precipitates, and slowly added with ammonium sulfate powder with stirring to form precipitates. In this case, precipitates were first collected by 30% saturation of ammonium sulfate (30% ammonium sulfate precipitation), and the resulting supernatant was further added with ammonium sulfate to 60% saturation with stirring to form precipitates again (30-60% ammonium sulfate precipitation). The supernatant was added again with ammonium sulfate powder to 90% ammonium sulfate saturation, and stirred at 4° C. for 1 hour, and the precipitates were collected by centrifugation. […] The.30′60% ammonium sulfate fraction was suspended in a small amount of column buffer (20 mM KPO4, pH 7.7, 100 mM NaCl, 1 mM DTT, 30 μg/ml PMSF), and desalted by dialysis against 500 ml of the same buffer for 16hours. The dialysate was applied on a heparin-Sepharose column of 5 ml volume (Pharmacia Biotech). Subsequently, the column was washed with the same buffer until any material absorbing ultraviolet ray at 280 nm disappeared, and eluted with a linear gradient of 0.1 M to 0.64 M NaCl in the same buffer of about 40 times volume of the column volume. The eluent was collected in test tubes as fractions of a suitable volume, and immediately subjected to SDS-acrylamide gel electrophoresis for protein analysis to identify fractions containing proteins around a molecular weight considered to be of the objective T7 RNA polymerase. […] The fractions containing the protein were collected, and desalted by dialysis against about 1 liter of the column buffer (20 mM KPO4, pH 7.7, 100 mM NaCl, 1 mM DTT, 30 μg/ml PMSF) for 16 hours. The fractions desalted by dialysis were applied to a Q-Sepharose column (Pharmacia Biotech) of 5 ml volume that preliminarily equilibrated with the same buffer, and the column was washed with the same buffer until any material absorbing ultraviolet ray at 280 nm disappeared, and eluted with a linear gradient of 0.1 M to 0.64 M NaCl in the same buffer of about 40 times volume of the column volume. The eluent was collected in test tubes as fractions of a suitable volume, and immediately subjected to SDS-acrylamide gel electrophoresis for protein analysis to identify fractions containing proteins around a molecular weight considered to be of the objective T7 RNA polymerase. […] The fractions containing the protein were collected, dialyzed against 500 ml of storage buffer (50% glycerol, 20 mM KPO4, pH 7.7, 100 mM NaCl, 1 mM DTT, 30 μg/ml PMSF) for 16 hours, and stored at −20° C. until use. In vitro RNA synthesis activity and activity of the contaminated ribonuclease of this sample were examined.

[2] = test system: 3′-dATP, 3′-dGTP, 3′-dCTP, 3′-dUTP and derivatives thereof
Procedure: The T7 RNA polymerases introduced with mutations were purified, and their abilities of promoter sequence specific RNA synthesis and incorporation of ribonucleoside 5′-triphosphates including ATP, GTP, CTP, UTP and derivatives thereof, as well as 3′-DATP, 3′-dGTP, 3′-dCTP, 3′-dUTP and derivatives thereof were compared with those of wild type T7 RNA polymerase.
For two kinds of reaction mixture (with or without 3′-DATP, final concentration was 100 μM), the reaction was performed at 37° C. for 60 minutes. The whole reaction mixture was spotted on DE81 paper (Whatman), washed three times with phosphate buffer, and dried. The DE81 paper was placed into a scintillation vial, and radioactivity was measured using a scintillation counter (Beckman) for each reaction. Degree of inhibition of the [α-^32P]UTP incorporation was calculated by comparing the values obtained with and without 3′-dATP based on the measured radioactivity.

B1: F644Y/L665P/F667Y: mutant T7 RNA polymerase introduced with F644Y/L665P/F667Y mutations (protein)
chain: MNTINIAKNDFSDIELAAIPFNTLADHYGERLAREQLALEHESYEMGEARFRKMFERQLKAGEVADNAAAKPLITTLLPKMIARINDWFEEVKAKRGKRPTAFQFLQEIKPEAVAYITIKTTLACLTSADNTTVQAVASAIGRAIEDEARFGRIRDLEAKHFKKNVEEQLNKRVGHVYKKAFMQVVEADMLSKGLLGGEAWSSWHKEDSIHVGVRCIEMLIESTGMVSLHRQNAGVVGQDSETIELAPEYAEAIATRAGALAGISPMFQPCVVPPKPWTGITGGGYWANGRRPLALVRTHSKKALMRYEDVYMPEVYKAINIAQNTAWKINKKVLAVANVITKWKHCPVEDIPAIEREELPMKPEDIDMNPEALTAWKRAAAAVYRKDKARKSRRISLEFMLEQANKFANHKAIWFPYNMDWRGRVYAVSMFNPQGNDMTKGLLTLAKGKPIGKEGYYWLKIHGANCAGVDKVPFPERIKFIEENHENIMACAKSPLENTWWAEQDSPFCFLAFCFEYAGVQHHGLSYNCSLPLAFDGSCSGIQHFSAMLRDEVGGRAVNLLPSETVQDIYGIVAKKVNEILQADAINGTDNEVVTVTDENTGEISEKVKLGTKALAGQWLAYGVTRSVTKRSVMTLAYGSKEYGFRQQVLEDTIQPAIDSGKGPMYTQPNQAAGYMAKLIWESVSVTVVAAVEAMNWLKSAAKLLAAEVKDKKTGEILRKRCAVHWVTPDGFPVWQEYKKPIQTRLNLMFLGQFRLQPTINTNKDSEIDAHKQESGIAPNFVHSQDGSHLRKTVVWAHEKYGIESFALIHDSFGTIPADAANLFKAVRETMVDTYESCDVLADFYDQFADQLHESQLDKMPALPAKGNLNLRDILESDFAFA
Dye terminators
  incorporation rate of dye terminators (electrogram): improvement of incorporation rate of dye terminators
3′-dATP; among the mutant enzymes prepared
  bias for the 3′-dATP incorporation: the least bias
3′-dATP; from Table 1
  more likely to incorporate 3′-dATP in comparison with the wild type enzyme: 5.58 times
3′-dATP; relative value of inhibition degree of [α-32P]UTP incorporation by 100 μM 3′-dATP, wild type normalized to 1.000, 37° C., 60 minutes
  Relative activity of RNA polymerase for 3′-dATP: 5.580
[1]
  RNA synthesis activity: maintained sufficient RNA synthesis activity
[2]
  bias of incorporation observed in the wild type: markedly reduced
[2]; compared with wild type T7 RNA polymerase
  ability for incorporating 3′-dATP, 3′-dGTP, 3′-dCTP, 3′-dUTP and derivatives thereof: marked improvement; also recorded: the highest; also recorded: markedly improved ability
